Assay results published in the supplement of paper PMC9170038.

System: MS2 coat protein
Experiment: apparent KD of MS2 coat protein; designed switch direction (-1 OFF switch, 1 ON switch): 1; higher = weaker reporter binding
How it was run: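 Designed RNA switches were transcribed on Illumina chips by stalled E. coli RNA polymerase and titrated with SNAP-549-labelled MS2 coat protein from 0.7 or 1.5 nM, doubling to 3 µM. Step length ran from 0.8–1.5 h at the lowest concentration to 10–20 min at the highest. The apparent KD is the median over clusters for each design, from curve-fitted normalised cluster fluorescence.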

[1] = Eterna round: R95, input ligand: FMN 200 uM
[2] = Eterna round: R95, input ligand: microRNA oligo, concentration not stated
[3] = Eterna round: R95, input ligand: none
[4] = input ligand: microRNA oligo, concentration not stated

Sequence: AUUAAACAUGAGGAUCACCCAUGUCAACAAAGUCGAGGAUAUGGGCAUAUUAUCUAAUAACCAGAAGGCGAAUAAU [salish99_ss1_r3_085] (puzzle: Same State 1)
- apparent KD of MS2 coat protein [1]: 43.8 nM
- apparent KD of MS2 coat protein [2]: 194 nM
- apparent KD of MS2 coat protein [3]: 210 nM

Sequence: UGGUACAUGGGAGGAUAUCAUGUAGAAACAUGAGGAUCACCCAUGUAGAUGGCCGGUAACCGGAAUGAGAAGGCCCAUGUACCU [JL SSNG1 3.63] (Eterna round: R96, puzzle: Same State NG 2)
- apparent KD of MS2 coat protein (input ligand: FMN 200 uM): 22.7 nM
- apparent KD of MS2 coat protein [4]: 18.9 nM
- apparent KD of MS2 coat protein (input ligand: none): 30.6 nM

Sequence: GAGAGAGGGUGAGGAUAUAGAGUAAUAAUGAUACUAGAAGGCACAGACAUGAGGAUCACCCAUGUGGGAAUAAUCCAGAGAGAG [Parity 5 - Jieux - Same State NG 1] (Eterna round: R96, puzzle: Same State NG 1)
- apparent KD of MS2 coat protein (input ligand: FMN 200 uM): 300 nM
- apparent KD of MS2 coat protein [4]: 259 nM
- apparent KD of MS2 coat protein (input ligand: none): 401 nM

Sequence: GUUACAUGAGGAUCACCCAUGUAUGUGUGGGAGUAAGUGUCUUAGGAUAUCUGUUAUUUGAUUUAAGAGAAGGAAGAUUGUUGU [JMF's solution 40] (Eterna round: R96, puzzle: Same State NG 3)
- apparent KD of MS2 coat protein (input ligand: FMN 200 uM): 123 nM
- apparent KD of MS2 coat protein [4]: 78.4 nM
- apparent KD of MS2 coat protein (input ligand: none): 92.8 nM

Sequence: AAAAAAAAGUCAGGAUAUGAAUGGAAAGUACAUGAGGAUCACCCAUGUUAUGGAAAAAAAAAACGUUAGAAGGGAUAAAAAAAA [AK SSNG2-V2-1] (Eterna round: R96, puzzle: Same State NG 2)
- apparent KD of MS2 coat protein (input ligand: FMN 200 uM): 61.3 nM
- apparent KD of MS2 coat protein [4]: 90.2 nM
- apparent KD of MS2 coat protein (input ligand: none): 62.3 nM

Sequence: AAAAGAAGAAGUAAGGAUAUUCAAAAGAAAACAUGAGGAUCACCCAUGUACCAAAAGAAAGAAAAGAAGAAGGUACACAAGAAAA [Same State 2 #3] (puzzle: Same State 2)
- apparent KD of MS2 coat protein [1]: 24.7 nM
- apparent KD of MS2 coat protein [2]: 23.2 nM
- apparent KD of MS2 coat protein [3]: 22.8 nM

Sequence: AGUCCAGCCUGAGCUGGACAAAAGCAUGUACAUGAGGAUCACCCAUGUCAUGUACAAGCUUUUUGCUCGAAAUAAUA [Mat - hsa-mir-208a - Mod of JL - D32] (puzzle: Sensor for hsa-mir-208a)
- apparent KD of MS2 coat protein [1]: 653 nM
- apparent KD of MS2 coat protein [2]: 14.6 nM
- apparent KD of MS2 coat protein [3]: 938 nM

Sequence: GCUUCGGCGGUAGGAUAUCUAGGAUAUGGGAAGAGCUAAGCUUGGAAGUCACUUCACCCAGAAGGAGAGAAGGACACCUUCGGG [pwkr ssNG2 2FMN + F9.4] (Eterna round: R96, puzzle: Same State NG 2)
- apparent KD of MS2 coat protein (input ligand: FMN 200 uM): 230 nM
- apparent KD of MS2 coat protein [4]: 3.87 nM
- apparent KD of MS2 coat protein (input ligand: none): 47 nM

Sequence: UUGAAGAAUUAAGGAUAUUGAAUACAUAUGUUAAACAUGAGGAUCACCCAUGUGGGUUGCGGUAUCGAGAAGGUAAAUUACUAG [Mat - same State NG 2 - JL mod - D80] (Eterna round: R96, puzzle: Same State NG 2)
- apparent KD of MS2 coat protein [4]: 60.1 nM

Sequence: GUAUCUACAGGUUGCAAUGCUCGUCGGAUACAUGAGGAUCACCCAUGUUAUAGCCCUGUGCUUGCGCAGGGCUGAUU [Sensor for hsa-mir-208a ( MOD of Tearor )] (puzzle: Sensor for hsa-mir-208a)
- apparent KD of MS2 coat protein [1]: 46.8 nM
- apparent KD of MS2 coat protein [2]: 39.4 nM
- apparent KD of MS2 coat protein [3]: 49.5 nM

Sequence: GGUCCAGCCUGAGCUGGACAAAAGCAUGUACAUGAGGAUCACCCAUGUCAUGUACAAGCUUUUUGCUCGUCAUAAUG [Mat - hsa-mir-208a - 99] (puzzle: Sensor for hsa-mir-208a)
- apparent KD of MS2 coat protein [1]: 713 nM
- apparent KD of MS2 coat protein [2]: 18.6 nM
- apparent KD of MS2 coat protein [3]: 806 nM

Sequence: AGCGAGAUAGGCAAGGAUAUGCUGGGUUUCACAUGAGGAUCACCCAUGUCAUAGGUAAUGUCCGAGCAGAAGGUGCAUUCUCUUU [ak bound state multiloop solution] (puzzle: Same State 2)
- apparent KD of MS2 coat protein [2]: 172 nM

Sequence: AGUCCAGCCUGAGCUGGACAAAAGCGUGUACAUGAGGAUCACCCAUGUUCAUGUACAAGCUUUUUGCUCGUCUUAAA [Zipper 52 - 6] (puzzle: Sensor for hsa-mir-208a)
- apparent KD of MS2 coat protein [1]: 25.7 nM
- apparent KD of MS2 coat protein [2]: 20 nM
- apparent KD of MS2 coat protein [3]: 127 nM

Sequence: CGUCCAGCCUGAGCUGGACAAAAGCAUGUACAUGAGGAUCACCCAUGUUCAUGUACAAGCUUUUUGCUCGUCUUAGG [salish99_208a_r3_074] (puzzle: Sensor for hsa-mir-208a)
- apparent KD of MS2 coat protein [1]: 593 nM
- apparent KD of MS2 coat protein [2]: 20.1 nM
- apparent KD of MS2 coat protein [3]: 744 nM

Sequence: GGACGUCAAUCUCCUACUUAAACAUGAGGAUCACCCAUGUCACAGGAUAUGAGUCCGAUUAGGACUCAGAAGGGUGAGACGUCC [Fiskers NG3ss - 50] (Eterna round: R96, puzzle: Same State NG 3)
- apparent KD of MS2 coat protein (input ligand: FMN 200 uM): 18.8 nM
- apparent KD of MS2 coat protein [4]: 15.2 nM
- apparent KD of MS2 coat protein (input ligand: none): 16 nM

Sequence: AUUAUACAUGAGGAUCACCCAUGUAAUUAAUCUAGUAAGAUCUAGGAUAUCAGCUCGUUUAGAGCUGAGAAGGAGAUCACAUGU [SSNG3/20-D3] (Eterna round: R96, puzzle: Same State NG 3)
- apparent KD of MS2 coat protein [4]: 38 nM

Sequence: GAGGGACAGACCAACAUGAGGAUCACCCAUGUCCUCGCAGGUCAGGAUAUUAUGAGGAUCACCCGUGAGAAGGGACGGUGAAUU (Eterna round: R96, puzzle: Same State NG 3)
- apparent KD of MS2 coat protein (input ligand: FMN 200 uM): 709 nM
- apparent KD of MS2 coat protein [4]: 390 nM
- apparent KD of MS2 coat protein (input ligand: none): 804 nM

Sequence: CUGAGCGAUCAAGGAUAUCACGUCGAUUAGACGUGAGAAGGUGAUAAUUACAUGAGGAUCACCCAUGUAUAACAUGAAGCUCAG [SSNG1/9-A2] (Eterna round: R96, puzzle: Same State NG 1)
- apparent KD of MS2 coat protein (input ligand: FMN 200 uM): 16 nM
- apparent KD of MS2 coat protein [4]: 17.3 nM
- apparent KD of MS2 coat protein (input ligand: none): 19.8 nM

Sequence: UGGAUCUAGGCUUGCCUGGGUCCAUGCUGACAUGAGGAUCACCCAUGUGCAUCCUACAAGCUUUUUGCUUGUCAGUU (puzzle: Sensor for hsa-mir-208a)
- apparent KD of MS2 coat protein [1]: 232 nM
- apparent KD of MS2 coat protein [2]: 166 nM
- apparent KD of MS2 coat protein [3]: 135 nM

Sequence: UGUUGUAUUACAGGAUAUCUAUUAUUUUUAUGUAGAGAAGGGUAUUCACAUGAGGAUCACCCAUGUAUAUACGAGGAAGUUGUG [JMF's solution 29] (Eterna round: R96, puzzle: Same State NG 1)
- apparent KD of MS2 coat protein [4]: 32.9 nM

Sequence: GACAAUCUAUCUGAGGAUAUCAUGAAAAAAACAUGAGGAUCACCCAUGUGCAGGAAAACUGCAUAUGAGAAGGCAGAUAGAUUGA [salish99_SS2_r3_009] (puzzle: Same State 2)
- apparent KD of MS2 coat protein [1]: 19.7 nM
- apparent KD of MS2 coat protein [2]: 155 nM
- apparent KD of MS2 coat protein [3]: 1190 nM

Sequence: GUAUAACAUGAGGAUCACCCAUGUCAUCUAAGUCGAGGAUAUGGGCAAAUAUAAUAAGAACCAGAAGGCGAAUAUG [Mat - Same State 1 - Mod of UCT - D34] (puzzle: Same State 1)
- apparent KD of MS2 coat protein [1]: 57.8 nM
- apparent KD of MS2 coat protein [2]: 111 nM
- apparent KD of MS2 coat protein [3]: 119 nM

Sequence: UAAGGACAUGAGGAUCACCCAUGUGCUUCAUAUGGAGAAACUCAGGAUAUGCUGAGGAUCACCCAGCAGAAGGGAGAUCCGAGG (Eterna round: R96, puzzle: Same State NG 3)
- apparent KD of MS2 coat protein (input ligand: FMN 200 uM): 206 nM
- apparent KD of MS2 coat protein [4]: 279 nM
- apparent KD of MS2 coat protein (input ligand: none): 281 nM

Sequence: GCGGAACGGGCCGACAUGAGGAUCACCCAUGUGGCCUCAUGUAAGGAUAUCGGGAAGAAGAAAACCGAGAAGGUACGGUGACGC [AK SSNG3-V2-31] (Eterna round: R96, puzzle: Same State NG 3)
- apparent KD of MS2 coat protein (input ligand: FMN 200 uM): 47.2 nM
- apparent KD of MS2 coat protein [4]: 15.6 nM
- apparent KD of MS2 coat protein (input ligand: none): 107 nM

Sequence: UGGUAACAUGAGGAUCACCCAUGUCAAAUGAAUCGAGGAUAUGGGAAGGAAGAAGAGAAACUAGAAGGCGAAGUUG [Altered State 1-5 - Jieux - Same State 1] (puzzle: Same State 1)
- apparent KD of MS2 coat protein [1]: 89 nM
- apparent KD of MS2 coat protein [2]: 101 nM
- apparent KD of MS2 coat protein [3]: 127 nM

Sequence: GCUAGAAAUAAAGCCAACAUGAGGAUCACCCAUGUAUGUUGGUAGGAUAUCGUUUGCAAAGCAAACGAGAAGGGCUAAUCUAGC [Mat - Same State NG 3 - JL Mod - D65] (Eterna round: R96, puzzle: Same State NG 3)
- apparent KD of MS2 coat protein (input ligand: FMN 200 uM): 76.4 nM
- apparent KD of MS2 coat protein [4]: 63.8 nM
- apparent KD of MS2 coat protein (input ligand: none): 69.8 nM

Sequence: AUAAAACAUGAGGAUCACCCAUGUUAACAAAGUCGAGGAUAUGGGCAAAUAAAAUAAGAACCAGAAGGCGAAUAAU [salish99_ss1_r3_045] (puzzle: Same State 1)
- apparent KD of MS2 coat protein [1]: 16.8 nM
- apparent KD of MS2 coat protein [2]: 27.9 nM
- apparent KD of MS2 coat protein [3]: 27.7 nM

Sequence: GGCAGGUGCAGGCUUGCUUGCACCUGGAGACAUGAGGAUCACCCAUGUUUGGGACAAGCUUUGCUCCUCGUCUUUUC [JL ViennaUCT Isusreraar mod 7] (puzzle: Sensor for hsa-mir-208a)
- apparent KD of MS2 coat protein [1]: 617 nM
- apparent KD of MS2 coat protein [2]: 104 nM
- apparent KD of MS2 coat protein [3]: 766 nM

Sequence: UUGCUCGUGUGAGGAUAUGCAGCCGUUUCGGCUGCAGAAGGUACUAUAAUACAUGAGGAUCACCCAUGUCUCUAUUGUUUAGUG [salish99_SSNG1_r04_927] (Eterna round: R96, puzzle: Same State NG 1)
- apparent KD of MS2 coat protein (input ligand: FMN 200 uM): 25.7 nM
- apparent KD of MS2 coat protein [4]: 19.6 nM
- apparent KD of MS2 coat protein (input ligand: none): 26.7 nM

Sequence: GGUGGGUUGCUGCCGGCACAUGAGGAUCACCCAUGUUUUGGGAAGGAUAUGGUCCCUCUUUGGUGCCAGAAGGUCCCGUUGGUG [salish99_SSNG3_r04_714] (Eterna round: R96, puzzle: Same State NG 3)
- apparent KD of MS2 coat protein (input ligand: FMN 200 uM): 691 nM
- apparent KD of MS2 coat protein [4]: 402 nM
- apparent KD of MS2 coat protein (input ligand: none): 743 nM

Sequence: AUUAUUAAUGCAGGAUAUGAUUAACAUGAGGAUCACCCAUGUGGUGUUGUGAGUAAGGAGAGUGAUCAGAAGGGCAUUUUUUUC [JMF's solution 20] (Eterna round: R96, puzzle: Same State NG 2)
- apparent KD of MS2 coat protein (input ligand: FMN 200 uM): 672 nM
- apparent KD of MS2 coat protein [4]: 369 nM
- apparent KD of MS2 coat protein (input ligand: none): 399 nM
